Results published in PMC7379511.

Molecular target: feline interleukin-31 (fIL-31) displayed on the yeast surface (pETconNK_fIL-31) (feline)
Assay: flow cytometry on cells

- Kd: 10.3 nM
- percent decrease of the binding of biotinylated fIL31RA-1FNIII: 65%
- percent decrease of the binding of biotinylated fOSMR-ECD (itself): 97%
Substance: soluble feline oncostatin M receptor extracellular domain, Fc fusion (fOSMR-ECD)
